Tests used:
[1] = molecular target: E. coli thioredoxin reductase (Escherichia coli) (UniProt P0A9P4)
[2] = molecular target: E. coli thioredoxin reductase (Escherichia coli) (UniProt P0A9P4); remark: listed apart in the source

Chain of UniProt P0A9P4 (P0A9P4 whole entry): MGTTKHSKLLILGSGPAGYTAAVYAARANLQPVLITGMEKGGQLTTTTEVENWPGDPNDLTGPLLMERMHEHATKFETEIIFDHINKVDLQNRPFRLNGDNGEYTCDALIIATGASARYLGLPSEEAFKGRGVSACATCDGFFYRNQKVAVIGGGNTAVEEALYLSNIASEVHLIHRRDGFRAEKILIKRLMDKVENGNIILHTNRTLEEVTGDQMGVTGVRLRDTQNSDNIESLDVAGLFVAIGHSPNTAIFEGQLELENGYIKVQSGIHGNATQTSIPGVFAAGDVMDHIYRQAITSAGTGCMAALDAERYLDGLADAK

A kcat/KM of the reduction of Trx by TrxR [1] greater than 1e+06 M⁻¹ s⁻¹ and a kcat of the reduction of the Trx variant by TrxR (Michaelis-Menten kinetics, DTNB/NADPH assay) [2] of 10 s⁻¹ were found for “Escherichia coli thioredoxin, wild type (from UniProt P0AA25 1-109) (natural protein)” in this work.

Reference: article PMC4485320
